Test results published in article PMC9519043.

How the values were obtained:
[1] = test system: HCoV OC43 virus particle (Betacoronavirus 1 HCoV OC43 (ATCC VR-1558)); assay: microfluidic affinity capture, RT-qPCR; conditions: 5' amino C12 linker and TEG spacer 9, 3' inverted dT, SPR (BIAcore T200, […], pH not stated
[2] = test system: HCoV 229E virus particle (Human coronavirus 229E (ATCC VR-740)); assay: microfluidic affinity capture, RT-qPCR; conditions: 5' amino C12 linker and TEG spacer 9, 3' inverted dT, SPR (BIAcore T200, […], pH not stated

Work on “CAGCACCGACCTTGTGCTTTGGGAGTGCTGGTCCAAGGGCGTTAATGGACA [51-nt SARS-CoV-2 aptamer, chip form]” yielded a binding signal [1] of 3.5 % recovery and a binding signal [2] of 0.7 % recovery.
